Molecular target: Rpt6 (human, UniProt P62195 1-406)
Test: cryo-EM structure

| binding result | Binder |
| --- | --- |
| binds | α2 subunit of the CP (natural protein) MAERGYSFSLTTFSPSGKLVQIEYALAAVAGGAPSVGIKAANGVVLATEKKQKSILYDERSVHKVEPITKHIGLVYSGMGPDYRVLVHRARKLAQQYYLVYQEPIPTAQLVQRVASVMQEYTQSGGVRPFGVSLLICGWNEGRPYLFQSDPSGAYFAWKATAMGKNYVNGKTFLEKRYNEDLELEDAIHTAILTLKESFEGQMTEDNIEVGICNEAGFRRLTPTEVKDYLAAIA |
| binds | α3 subunit of the CP (natural protein) MSRRYDSRTTIFSPEGRLYQVEYAMEAIGHAGTCLGILANDGVLLAAERRNIHKLLDEVFFSEKIYKLNEDMACSVAGITSDANVLTNELRLIAQRYLLQYQEPIPCEQLVTALCDIKQAYTQFGGKRPFGVSLLYIGWDKHYGFQLYQSDPSGNYGGWKATCIGNNSAAAVSMLKQDYKEGEMTLKSALALAIKVLNKTMDVSKLSAEKVEIATLTRENGKTVIRVLKQKEVEQLIKKHEEEEAKAEREKKEKEQKEKDK |
